# Experimental data taken from patent US20140271603.
# T1: recombinant human factor H, Y402 variant, produced in the PER.C6 cell line
# T1 chain: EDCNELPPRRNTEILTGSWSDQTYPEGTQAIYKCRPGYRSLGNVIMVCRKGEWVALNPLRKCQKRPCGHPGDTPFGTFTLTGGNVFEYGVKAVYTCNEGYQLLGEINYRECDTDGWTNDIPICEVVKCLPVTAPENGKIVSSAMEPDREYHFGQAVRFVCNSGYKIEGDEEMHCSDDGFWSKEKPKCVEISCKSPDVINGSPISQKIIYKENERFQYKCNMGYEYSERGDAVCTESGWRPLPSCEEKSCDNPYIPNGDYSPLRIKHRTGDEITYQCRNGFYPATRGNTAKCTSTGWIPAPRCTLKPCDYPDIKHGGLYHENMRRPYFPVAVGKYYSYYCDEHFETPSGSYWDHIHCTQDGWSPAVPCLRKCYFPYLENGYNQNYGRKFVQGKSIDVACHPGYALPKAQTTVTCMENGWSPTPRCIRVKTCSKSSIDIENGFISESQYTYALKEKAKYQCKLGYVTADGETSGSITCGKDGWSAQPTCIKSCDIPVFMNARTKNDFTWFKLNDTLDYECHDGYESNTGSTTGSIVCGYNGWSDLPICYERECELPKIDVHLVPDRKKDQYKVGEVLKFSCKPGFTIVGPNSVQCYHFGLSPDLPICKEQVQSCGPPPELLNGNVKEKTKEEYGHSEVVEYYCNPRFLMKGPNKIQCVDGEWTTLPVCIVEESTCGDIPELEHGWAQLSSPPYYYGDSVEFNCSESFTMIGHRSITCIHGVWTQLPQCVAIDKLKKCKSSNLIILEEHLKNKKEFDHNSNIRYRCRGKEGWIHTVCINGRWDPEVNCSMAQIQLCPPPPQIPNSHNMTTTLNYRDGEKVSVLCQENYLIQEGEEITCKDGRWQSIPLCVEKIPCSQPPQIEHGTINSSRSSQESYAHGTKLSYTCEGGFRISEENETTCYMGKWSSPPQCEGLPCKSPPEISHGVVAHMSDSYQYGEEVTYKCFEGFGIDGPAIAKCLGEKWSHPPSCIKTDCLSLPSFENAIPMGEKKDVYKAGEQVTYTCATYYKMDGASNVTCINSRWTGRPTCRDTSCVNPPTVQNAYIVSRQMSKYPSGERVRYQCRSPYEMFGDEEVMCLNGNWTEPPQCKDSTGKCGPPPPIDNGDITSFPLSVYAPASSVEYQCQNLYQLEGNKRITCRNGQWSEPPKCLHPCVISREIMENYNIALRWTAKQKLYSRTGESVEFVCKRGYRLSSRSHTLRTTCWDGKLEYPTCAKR
# T2: recombinant human factor H, Y402 variant, produced in the HEK 293F cell line
# T2 chain: T1 chain
# B1: Factor I (protein)
# chain: KVTYTSQEDLVEKKCLAKKYTHLSCDKVFCQPWQRCIEGTCVCKLPYQCPKNGTAVCATNRRSFPTYCQQKSLECLHPGTKFLNNGTCTAEGKFSVSLKHGNTDSEGIVEVKLVDQDKTMFICKSSWSMREANVACLDLGFQQGADTQRRFKLSDLSINSTECLHVHCRGLETSLAECTFTKRRTMGYQDFADVVCYTQKADSPMDDFFQCVNGKYISQMKACDGINDCGDQSDELCCKACQGKGFHCKSGVCIPSQYQCNGEVDCITGEDEVGCAGFASVTQEETEILTADMDAERRRIKSLLPKLSCGVKNRMHIRRKRIVGGKRAQLGDLPWQVAIKDASGITCGGIYIGGCWILTAAHCLRASKTHRYQIWTTVVDWIHPDLKRIVIEYVDRIIFHENYNAGTYQNDIALIEMKKDGNKKDCELPRSIPACVPWSPYLFQPNDTCIVSGWGREKDNERVFSLQWGEVKLISNCSKFYGNRFYEKEMECAGTYDGSIDACKGDSGGPLVCMDANNVTYVWGVVSWGENCGKPEFPGVYTKVANYFDWISYHVGRPFISQYNV
# How the values were obtained:
# [1] = target: purified human plasma factor H (batch LFB), P08603
# [2] = target: T1, recombinant human factor H, Y402 …
# [3] = target: T2, recombinant human factor H, Y402 …
protein,measurement,setting,value
B1,"cofactor activity of Factor I (liquid-phase cleavage of the C3b α′ chain, SDS-PAGE)",[1],this activity is comparable to that of the human plasma FH
same,"cofactor activity of Factor I (liquid-phase cleavage of the C3b α′ chain, SDS-PAGE)",[2],the recombinant FHs produced by the PER.C6 and HEK 293F lines have a similar cofactor activity of FI and that this activity is comparable to that of the human plasma FH
same,"cofactor activity of Factor I (liquid-phase cleavage of the C3b α′ chain, SDS-PAGE)",[3],the recombinant FHs produced by the PER.C6 and HEK 293F lines have a similar cofactor activity of FI and that this activity is comparable to that of the human plasma FH
